According to the supplement of paper PMC7877785:
± gives the uncertainty stated by the source.

Test: self-splicing fitness, log relative to wild type (ln ratio); higher = more splicing; Tetrahymena group I intron in knt gene, E. coli kanamycin selection, DiMSum; sequences stand for … in CUCUCU…GGAGGGAAAAGUUAUCAGGCAUGCACCUGGUAGCUAGUCUUUAAACCAAUAGAUUGCAUCGGUUUAAAAGGCAAGACCGUCAAAUUGCGGGAAAGGGGUCAACAGCCGUUCAGUACCAAGUCUCAGGGGAAACUUUGAGAUGGCCUUGCAAAGGGUAUGGUAAUAAGCUGACGGACAUGGUCCUAACCACGCAGCCAAGUCCUAAGUCAACAGAUCUUCUGUUGAUAUGGAUGCAGUUCACAGACUAAAUGUCGGUCGGGGAAGAUGUAUUCUUCUCAUAAGAUAUAGUCGGACCUCUCCUUAAUGGGAGCUAGCGGAUGAAGUGAUGCAACACUGGAGCCGCUGGGAACUAAUUUGUAUGCGAAAGUAUAUUGAUUAGUUUUGGAGUACUCGUGGUCG
In short: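 Colonies from six replicate transformations of E. coli BL21(DE3) were pooled and amplicon-sequenced on an Illumina HiSeq 2500. The library placed an intron with all eight P1ex-region nucleotides randomised inside the knt kanamycin-resistance gene on pET-22b(+), and cells grew overnight at 37°C or 30°C on LB agar with or without 25 μg/mL kanamycin (plus 100 μg/mL carbenicillin, 50 μM IPTG, 0.2% rhamnose). Fitness is the DiMSum error-weighted combination of wild-type-normalised replicate fold changes, kanamycin versus none.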

Row | Sequence | self-splicing fitness (ln) (30 °C) | self-splicing fitness (ln) (37 °C)
1 | AGUGAGCAAUAUUACGACCU | -1.32 ± 0.15 | -0.41 ± 0.2
2 | CCCAAGCAAUAUUACGGCUC | -2.28 ± 0.21 | -2.59 ± 0.29
3 | GACCAGCAAUAUUACGCAUC | -0.629 ± 0.064 | -0.599 ± 0.076
4 | GGAUAGCAAUAUUACGCAUG | -0.819 ± 0.12 | 0.00525 ± 0.14
5 | CUCUAGCAAUAUUACGUGGG | -4.79 ± 0.29 | -2.73 ± 0.18
6 | GUCGAGCAAUAUUACGCCUA | – | -1.1 ± 0.41
7 | GAAAAGCAAUAUUACGCGCA | -0.195 ± 0.062 | -0.0235 ± 0.084
8 | GGGUAGCAAUAUUACGUGCU | -0.698 ± 0.15 | -0.399 ± 0.19
9 | AUUAAGCAAUAUUACGCGUG | -0.804 ± 0.067 | -0.697 ± 0.081
10 | ACACAGCAAUAUUACGCUGA | -2.42 ± 0.096 | -1.47 ± 0.083
11 | UGUUAGCAAUAUUACGUUUU | -3.9 ± 0.33 | -2.19 ± 0.24
12 | CCUGAGCAAUAUUACGUACC | -0.796 ± 0.25 | -2.27 ± 0.37
13 | UUAAAGCAAUAUUACGGAGU | -3.35 ± 0.21 | -1.68 ± 0.19
14 | GAAAAGCAAUAUUACGAACU | -0.519 ± 0.1 | 0.532 ± 0.13
15 | UUCUAGCAAUAUUACGUAGA | -3.73 ± 0.29 | -2.19 ± 0.25
16 | CUUGAGCAAUAUUACGUCUU | -4.1 ± 0.21 | -2.48 ± 0.2
17 | GACGAGCAAUAUUACGGGUG | -4.16 ± 0.31 | -1.89 ± 0.16
18 | CUAUAGCAAUAUUACGCCUG | -0.141 ± 0.15 | -0.439 ± 0.14
19 | GUAGAGCAAUAUUACGUUGC | -4.29 ± 0.3 | -3.11 ± 0.24
20 | UUUGAGCAAUAUUACGUGUC | -4.05 ± 0.42 | -2.79 ± 0.27
21 | GUAGAGCAAUAUUACGGCAU | -0.0916 ± 0.085 | 0.127 ± 0.12
22 | UUCCAGCAAUAUUACGCAAU | -2.02 ± 0.17 | -1.31 ± 0.14
23 | UUCUAGCAAUAUUACGCUCG | -2.13 ± 0.26 | -2.09 ± 0.49
24 | AGGGAGCAAUAUUACGGUCA | -2.38 ± 0.18 | -2.08 ± 0.21

Row | Sequence | self-splicing fitness (ln) (30 °C) | self-splicing fitness (ln) (37 °C)
25 | GUCAAGCAAUAUUACGAGAG | -2.41 ± 0.18 | -2.31 ± 0.27
26 | CACUAGCAAUAUUACGGAAG | -0.706 ± 0.088 | -0.266 ± 0.097
27 | UACGAGCAAUAUUACGUAAC | -4.91 ± 0.41 | -3.7 ± 0.3
28 | CGCUAGCAAUAUUACGGCGG | -1.68 ± 0.089 | -0.662 ± 0.11
29 | AUCCAGCAAUAUUACGAAGA | -1.56 ± 0.18 | -1.64 ± 0.16
30 | UCAGAGCAAUAUUACGUUAC | -3.21 ± 0.37 | -1.55 ± 0.29
31 | UUACAGCAAUAUUACGGGUC | -3.67 ± 0.19 | -2.51 ± 0.15
32 | GCCGAGCAAUAUUACGAGUG | -2.22 ± 0.14 | -2.16 ± 0.13
33 | AGGUAGCAAUAUUACGGUCC | -0.156 ± 0.017 | 0.00993 ± 0.035
34 | CUCGAGCAAUAUUACGUCAC | -3.1 ± 0.3 | -1.11 ± 0.22
35 | CACGAGCAAUAUUACGGCCA | – | -2.79 ± 0.32
36 | CCCUAGCAAUAUUACGCCGA | -3.85 ± 0.33 | -2.31 ± 0.3
37 | CUACAGCAAUAUUACGUAAA | -3.13 ± 0.16 | -1.92 ± 0.17
38 | GAGUAGCAAUAUUACGAACU | -0.979 ± 0.14 | -0.323 ± 0.23
39 | UUUUAGCAAUAUUACGAAGU | -3.02 ± 0.35 | -1.65 ± 0.46
40 | GCGGAGCAAUAUUACGCGGC | -3.04 ± 0.48 | –
41 | GUUCAGCAAUAUUACGCUUG | -1.54 ± 0.081 | -0.171 ± 0.089
42 | GUGGAGCAAUAUUACGCUUC | -3.26 ± 0.2 | -3.69 ± 0.42
43 | AACCAGCAAUAUUACGGGUC | -3.62 ± 0.13 | -2.68 ± 0.15
44 | GAAAAGCAAUAUUACGAACG | -0.893 ± 0.083 | -0.364 ± 0.11
45 | AUUGAGCAAUAUUACGGUUA | -3.06 ± 0.29 | -2.57 ± 0.22
46 | UGUAAGCAAUAUUACGAGCU | -0.434 ± 0.16 | 0.293 ± 0.16
47 | AACAAGCAAUAUUACGCAAU | -1.37 ± 0.096 | -1.09 ± 0.12
48 | AAAAAGCAAUAUUACGCUCA | -0.278 ± 0.058 | 0.0203 ± 0.082
